Measurements as given in US20230183713A1, “SITE-SPECIFIC RECOMBINASES FOR EFFICIENT AND SPECIFIC GENOME EDITING” (TECHNISCHE UNIVERSITÄt DRESDEN, published 2023).
Where a chain is given by its changes, count along the chain named. Names may count otherwise.

Legend:
[1] = target: T1, Cre recombinase monomer with Q311R mutation
T1 chain: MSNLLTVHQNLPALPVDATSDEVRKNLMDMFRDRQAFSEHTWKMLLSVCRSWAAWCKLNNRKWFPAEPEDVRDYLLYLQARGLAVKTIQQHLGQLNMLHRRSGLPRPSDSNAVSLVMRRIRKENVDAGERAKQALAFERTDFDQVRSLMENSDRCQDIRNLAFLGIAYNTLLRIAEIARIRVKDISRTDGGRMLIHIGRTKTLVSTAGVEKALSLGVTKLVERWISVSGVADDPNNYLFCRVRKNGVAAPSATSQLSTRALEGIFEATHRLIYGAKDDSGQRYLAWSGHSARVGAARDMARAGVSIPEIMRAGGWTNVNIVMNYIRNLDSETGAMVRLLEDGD

[2] = target: T2, Cre recombinase monomer with Y324A mutation
T2 chain: T1 chain with R311Q, Y324A

[3] = target: T3, Cre recombinase monomer with Y324L mutation
T3 chain: T1 chain with R311Q, Y324L

[4] = target: T4, Cre recombinase monomer with E176Y mutation
T4 chain: T1 chain with E176Y, R311Q

[5] = target: T5, Cre recombinase monomer with E176M mutation
T5 chain: T1 chain with E176M, R311Q

[6] = target: T6, Cre recombinase monomer with E176V mutation
T6 chain: T1 chain with E176V, R311Q

[7] = target: T7, Cre recombinase monomer with E176H mutation
T7 chain: T1 chain with E176H, R311Q

[8] = target: T8, Cre recombinase monomer with Y324K mutation
T8 chain: T1 chain with R311Q, Y324K

[9] = target: T9, Cre recombinase monomer with E176I mutation
T9 chain: T1 chain with E176I, R311Q

[10] = target: T10, Cre recombinase monomer with W315T mutation
T10 chain: T1 chain with R311Q, W315T

[11] = target: T11, Cre recombinase monomer with W315L mutation
T11 chain: T1 chain with R311Q, W315L

[12] = target: T12, Cre recombinase monomer with W315C mutation
T12 chain: T1 chain with R311Q, W315C

B1: Cre recombinase monomer with K201N mutation (protein)
chain: T1 chain with K201N, R311Q
[1]
  Median dimer activity (recombination on loxP): 95%
[2]
  Median dimer activity (recombination on loxP): 26%

B2: Cre recombinase monomer with W315M mutation (protein)
chain: T1 chain with R311Q, W315M
[3]
  Median dimer activity (recombination on loxP): 71%

B3: Cre recombinase monomer with R173M mutation (protein)
chain: T1 chain with R173M, R311Q
[4]
  Median dimer activity (recombination on loxP): 27%
[5]
  Median dimer activity (recombination on loxP): 39%
[1]
  Median dimer activity (recombination on loxP): 96%
[6]
  Median dimer activity (recombination on loxP): 75%
[7]
  Median dimer activity (recombination on loxP): 75%

B4: Cre recombinase monomer with K201P mutation (protein)
chain: T1 chain with K201P, R311Q
[1]
  Median dimer activity (recombination on loxP): 95%
[3]
  Median dimer activity (recombination on loxP): 59%

B5: Cre recombinase monomer with W315K mutation (protein)
chain: T1 chain with R311Q, W315K
[8]
  Median dimer activity (recombination on loxP): 99%

B6: Cre recombinase monomer with R173I mutation (protein)
chain: T1 chain with R173I, R311Q
[1]
  Median dimer activity (recombination on loxP): 93%
[6]
  Median dimer activity (recombination on loxP): 44%
[9]
  Median dimer activity (recombination on loxP): 40%
[7]
  Median dimer activity (recombination on loxP): 42%

B7: Cre recombinase monomer with W315L mutation (protein)
chain: T1 chain with R311Q, W315L
[10]
  Median dimer activity (recombination on loxP): 50%

B8: Cre recombinase monomer with R173W mutation (protein)
chain: T1 chain with R173W, R311Q
[4]
  Median dimer activity (recombination on loxP): 30%
[1]
  Median dimer activity (recombination on loxP): 95%
[7]
  Median dimer activity (recombination on loxP): 57%

B9: Cre recombinase monomer with R173C mutation (protein)
chain: T1 chain with R173C, R311Q
[5]
  Median dimer activity (recombination on loxP): 27%
[1]
  Median dimer activity (recombination on loxP): 91%
[7]
  Median dimer activity (recombination on loxP): 65%

B10: Cre recombinase monomer with R292T mutation (protein)
chain: T1 chain with R292T, R311Q
[1]
  Median dimer activity (recombination on loxP): 94%
[8]
  Median dimer activity (recombination on loxP): 55%

B11: Cre recombinase monomer with H289E mutation (protein)
chain: T1 chain with H289E, R311Q
[1]
  Median dimer activity (recombination on loxP): 94%
[11]
  Median dimer activity (recombination on loxP): 33%

B12: Cre recombinase monomer with H289W mutation (protein)
chain: T1 chain with H289W, R311Q
[1]
  Median dimer activity (recombination on loxP): 95%
[12]
  Median dimer activity (recombination on loxP): 87%

B13: Cre recombinase monomer with R173Q mutation (protein)
chain: T1 chain with R173Q, R311Q
[5]
  Median dimer activity (recombination on loxP): 32%
[1]
  Median dimer activity (recombination on loxP): 92%
